Test results taken from patent US20250114433A1 (published 2025).

How the values were obtained:
Test in all cases: cytokine release
[1] = target: T1, KRAS G12V (same sequence in NRAS and HRAS G12V) peptide on HLA-A*11:01 (human)
T1 peptide: VVGAVGVGK

[2] = target: T2, KRAS G12D (same sequence in NRAS and HRAS G12D) peptide on HLA-A*11:01 (human)
T2 peptide: VVGADGVGK

[3] = target: T3, KRAS G12D (same sequence in NRAS and HRAS G12D) peptide on HLA-A*11:01 (human)
T3 peptide: VVVGADGVGK

[4] = target: T4, KRAS G12V (same sequence in NRAS and HRAS G12V) peptide on HLA-A*11:01 (human)
T4 peptide: VVVGAVGVGK

B1: TCR18 (TCR, V domains shown)
Valpha: SQQGEEDPQALSIQEGENATMNCSYKTSINNLQWYRQNSGRGLVHLILIRSNEREKHSGRLRVTLDTSKKSSSLLITASRAADTASYFCATDEGGGADGLTFGKGTHLIIQP
Vbeta: DSGVTQTPKHLITATGQRVTLRCSPRSGDLSVYWYQQSLDQGLQFLIQYYNGEERAKGNILERFSAQQFPDLHSELNLSSLELGDSALYFCASSVTWGPYEQYFGPGTRLTVT
B1: no recognition [1]; no recognition [2]; no recognition [3]. B1: no recognition [4].

B2: TCR19 (TCR, V domains shown)
Valpha: DQQVKQNSPSLSVQEGRISILNCDYTNSMFDYFLWYKKYPAEGPTFLISISSIKDKNEDGRFTVFLNKSAKHLSLHIVPSQPGDSAVYFCAASANNNDMRFGAGTRLTVKP
Vbeta: DAGVIQSPRHEVTEMGQEVTLRCKPISGHDYLFWYRQTMMRGLELLIYFNNNVPIDDSGMPEDRFSAKMPNASFSTLKIQPSEPRDSAVYFCASSPTGGGMLGQYFGPGTRLTVL
B2: recognises [1]; no recognition [2]; no recognition [3].

B3: A11 KRAS TCR_220_21 (TCR, V domains shown)
Valpha: GEDVEQSLFLSVREGDSSVINCTYTDSSSTYLYWYKQEPGAGLQLLTYIFSNMDMKQDQRLTVLLNKKDKHLSLRIADTQTGDSAIYFCAEPIIGGNTPLVFGKGTRLSVIA
Vbeta: GAGVSQSPRYKVAKRGQDVALRCDPISGHVSLFWYQQALGQGPEFLTYFQNEAQLDKSGLPSDRFFAERPEGSVSTLKIQRTQQEDSAVYLCASSSEGLAGGPTAGELFFGEGSRLTVL
B3: no recognition [2]; no recognition [3]; recognises [4].

B4: A11 KRAS TCR_129_2 (TCR, V domains shown)
Valpha: SQQGEEDPQALSIQEGENATMNCSYKTSINNLQWYRQNSGRGLVHLILIRSNEREKHSGRLRVTLDTSKKSSSLLITASRAADTASYFCASSGGGADGLTFGKGTHLIIQP
Vbeta: KAGVTQTPRYLIKTRGQQVTLSCSPISGHRSVSWYQQTPGQGLQFLFEYFSETQRNKGNFPGRFSGRQFSNSRSEMNVSTLELGDSALYLCASSLGGAGETQYFGPGTRLLVL
B4: recognises [3].

B5: A11 KRAS TCR_129_8 (TCR, V domains shown)
Valpha: DQQVKQNSPSLSVQEGRISILNCDYTNSMFDYFLWYKKYPAEGPTFLISISSIKDKNEDGRFTVFLNKSAKHLSLHIVPSQPGDSAVYFCAANTNAGKSTFGDGTTLTVKP
Vbeta: DTGVSQDPRHKITKRGQNVTFRCDPISEHNRLYWYRQTLGQGPEFLTYFQNEAQLEKSRLLSDRFSAERPKGSFSTLEIQRTEQGDSAMYLCASSTGTAEQYFGPGTRLTVT
B5: recognises [1]; recognises [4].

B6: A11 KRAS TCR_141_6 (TCR, V domains shown)
Valpha: SQQGEEDPQALSIQEGENATMNCSYKTSINNLQWYRQNSGRGLVHLILIRSNEREKHSGRLRVTLDTSKKSSSLLITASRAADTASYFCATDVFQGAQKLVFGQGTRLTINP
Vbeta: EAGVAQSPRYKIIEKRQSVAFWCNPISGHATLYWYQQILGQGPKLLIQFQNNGVVDDSQLPKDRFSAERLKGVDSTLKIQPAKLEDSAVYLCASSIETSYEQYFGPGTRLTVT
B6: recognises [1]; recognises [4].

B7: A11 KRAS TCR_141_7 (TCR, V domains shown)
Valpha: AQSVTQPDIHITVSEGASLELRCNYSYGATPYLFWYVQSPGQGLQLLLKYFSGDTLVQGIKGFEAEFKRSQSSFNLRKPSVHWSDAAEYFCAVTGGGNKLTFGTGTQLKVEL
Vbeta: DTGVSQDPRHKITKRGQNVTFRCDPISEHNRLYWYRQTLGQGPEFLTYFQNEAQLEKSRLLSDRFSAERPKGSFSTLEIQRTEQGDSAMYLCASSLAGETGELFFGEGSRLTVL
B7: recognises [3].
